From US12385058B2, “Herbicide tolerance protein, encoding gene thereof and use thereof” (Beijing Dabeinong Biotechnology Co., Ltd., priority 2018, dated 2025)

B1: ALT02M1-02: nucleotide sequence SEQ ID NO: 26 encoding ALT02M1, based on maize codon usage bias (nucleic acid)
DNA: ATGGAGACTGATAACGTGGAGCTGGCGCAGAGCAAGAGGAAGGTGGTTCTGGCTGAGCAGGGGTCGTTCTACATTGGGGGGCGGACTGTGACCGGGCCCGGCAAGTTCGACCCATCGAAGCCTGTCATTCCGTACTCTAACGAGGGCGCTACGTTCTACATCAACCAGATGTACGTGAATTTCCAGGCTCCCGTCCGCCCAAGGGGCCTCCCACTGGTGTTCTGGCACGGCGGGGGCCTGACAGGCCATATCTGGGAGTCCACTCCAGATGGCCGCCCAGGGTTCCAGACACTCTTCGTTCAGGACAGGCACACAGTGTACACTATTGATCAGCCAGGGAGGGGCAGGGGGAACATCCCTACCTTCAATGGCCCATTCGGGCAGCTGGAGGAGGAGTCCATCGTGAACACCGTCACGGCGAATTCCAGCAAGGAGGGGGCTTGGGTCAGGGACCGGCTCGGCCCGGCCCCAGGGCAGTTCTTCGAGAACTCTCAGTTCCCCCGGGGCTACGAGGATAATTACTTCAAGGAGATGGGCTTCTCACCATCCATCTCGTCTGACGAGATTGTCGATGCCGTGGTCAAGCTCGTTACCCACATCGGCCCTTGCGTTCTGGTGACGCATAGCGCTTCGGGCGTCCTCGGGATGAGGGTTGCTACACATGCGAAGAACGTTCGCGGCATCGTGGCTTACGAGCCGGCCACTTCCATTTTCCCCAAGGGCAAGGTGCCAGAGATCCCACCACTGGCCGACAAGAAGTCACAGATCTTCCCACCTTTCGAGATTCAGGAGTCCTACTTCAAGAAGCTCGCTAAGATCCCCATTCAGTTCGTGTTCGGCGACAACATTCCTAAGAATCCGAAGAGCGCGTACTGGTTCCTGGATTGGTGGCGCGTCACGCGCTACGCGCACTCTCTCTCACTGGAGGCTATCAACAAGCTCGGGGGCCAGGCCTCGCTCCTGGACCTCCCTACCGCTGGCCTGAGGGGGAACACCCATTTCCCGTTCACGGATCGGAACAATGTCCAGGTTGCGTCCCTCCTGAGCGATTTCCTCGGCAAGCACGGGCTGGATCAGAATGAGTCTAAGCTCGCTGCGGCGCTGGAGTGA
modifications: the ALT02M1-02 nucleotide sequence encoding the amino acid sequence corresponding to the herbicide tolerant protein ALT02M1 and based on the maize codon usage bias
B2: ALT02M3-02: nucleotide sequence SEQ ID NO: 34 encoding ALT02M3, based on maize codon usage bias (nucleic acid)
DNA: ATGGAGACTGATAACGTGGAGCTGGCGCAGAGCAAGAGGAAGGTGGTTCTGGCTGAGCAGGGGTCGTTCTACATTGGGGGGCGGACTGTGACCGGGCCCGGCAAGTTCGACCCATCGAAGCCTGTCATTCGGGCGTCTAACGAGGGCGCTACGTTCTACATCAACCAGATGTACGTGAATTTCCAGGCTCCCGTCCGCCCAAGGGGCCTCCCACTGGTGTTCTGGCACGGCGGGGGCCTGACAGGCCATATCTGGGAGTCCACTCCAGATGGCCGCCCAGGGTTCCAGACACTCTTCGTTCAGGACAGGCACACAGTGTACACTATTGATCAGCCAGGGAGGGGCAGGGGGAACATCCCTACCTTCAATGGCCCATTCGGGCAGCTGGAGGAGGAGTCCATCGTGAACACCGTCACGGCGAATGTGAGCAAGGAGCGGGCTTGGGTCAGGGACCGGCTCGGCCCGGCCCCAGGGCAGTTCTTCGAGAACTCTCAGTTCCCCCGGGGCTACGAGGATAATTACTTCAAGGAGATGGGCTTCTCACCATCCATCTCGTCTGACGAGATTGTCGATGCCGTGGTCAAGCTCGTTACCCACATCGGCCCTTGCGTTCTGGTGACGCATAGCGCTTCGGGCGTCCTCGGGATGAGGGTTGCTACACATGCGAAGAACGTTCGCGGCATCGTGGCTTACGAGCCGGCCACTTCCATTTTCCCCAAGGGCAAGGTGCCAGAGATCCCACCACTGGCCGACAAGAAGTCACAGATCTTCCCACCTTTCGAGATTCAGGAGTCCTACTTCAAGAAGCTCGCTAAGATCCCCATTCAGTTCGTGTTCGGCGACAACATTCCTAAGAATCCGAAGAGCGCGTACTGGTTCCTGGATTGGTGGCGCGTCACGCGCTACGCGCACTCTCTCTCACTGGAGGCTATCAACAAGCTCGGGGGCCAGGCCTCGCTCCTGGACCTCCCTACCGCTGGCCTGAGGGGGAACACCCATTTCCCGTTCACGGATCGGAACAATGTCCAGGTTGCGTCCCTCCTGAGCGATTTCCTCGGCAAGCACGGGCTGGATCAGAATGAGTCTAAGCTCGCTGCGGCGCTGGAGTGA
modifications: the ALT02M3-02 nucleotide sequence encoding the amino acid sequence corresponding to the herbicide tolerant protein ALT02M3 and based on the maize codon usage bias
B3: ALT02M2-02: nucleotide sequence SEQ ID NO: 30 encoding ALT02M2, based on maize codon usage bias (nucleic acid)
DNA: ATGGAGACTGATAACGTGGAGCTGGCGCAGAGCAAGAGGAAGGTGGTTCTGGCTGAGCAGGGGTCGTTCTACATTGGGGGGCGGACTGTGACCGGGCCCGGCAAGTTCGACCCATCGAAGCCTGTCATTCCGTACTCTAACGAGGGCGCTACGTTCTACATCAACCAGATGTACGTGAATTTCCAGGCTCCCGTCCGCCCAAGGGGCCTCCCACTGGTGTTCTGGCACGGCGGGGGCCTGACAGGCCATATCTGGGAGTCCACTCCAGATGGCCGCCCAGGGTTCCAGACACTCTTCGTTCAGGACAGGCACACAGTGTACACTATTGATCAGCCAGGGAGGGGCAGGGGGAACATCCCTACCTTCAATGGCCCATTCGGGCAGCTGGAGGAGGAGTCCATCGTGAACACCGTCACGGGCAATGTGAGCAAGGAGGGGGCTTGGGTCAGGGACCGGCTCGGCCCGGCCCCAGGGCAGTTCTTCGAGAACTCTCAGTTCCCCCGGGGCTACGAGGATAATTACTTCAAGGAGATGGGCTTCTCACCATCCATCTCGTCTGACGAGATTGTCGATGCCGTGGTCAAGCTCGTTACCCACATCGGCCCTTGCGTTCTGGTGACGCATAGCGCTTCGGGCGTCCTCGGGATGAGGGTTGCTACACATGCGAAGAACGTTCGCGGCATCGTGGCTTACGAGCCGGCCACTTCCATTTTCCCCAAGGGCAAGGTGCCAGAGATCCCACCACTGGCCGACAAGAAGTCACAGATCTTCCCACCTTTCGAGATTCAGGAGTCCTACTTCAAGAAGCTCGCTAAGATCCCCATTCAGTTCGTGTTCGGCGACAACATTCCTAAGAATCCGAAGAGCGCGTACTGGTTCCTGGATTGGTGGCGCGTCACGCGCTACGCGCACTCTCTCTCACTGGAGGCTATCAACAAGCTCGGGGGCCAGGCCTCGCTCCTGGACCTCCCTACCGCTGGCCTGAGGGGGAACACCCATTTCCCGTTCACGGATCGGAACAATGTCCAGGTTGCGTCCCTCCTGAGCGATTTCCTCGGCAAGCACGGGCTGGATCAGAATGAGTCTAAGCTCGCTGCGGCGCTGGAGTGA
modifications: the ALT02M2-02 nucleotide sequence encoding the amino acid sequence corresponding to the herbicide tolerant protein ALT02M2 and based on the maize codon usage bias
B4: ALT02-02: nucleotide sequence SEQ ID NO: 22 encoding ALT02, based on maize codon usage bias (nucleic acid)
DNA: ATGGAGACTGATAACGTGGAGCTGGCGCAGAGCAAGAGGAAGGTGGTTCTGGCTGAGCAGGGGTCGTTCTACATTGGGGGGCGGACTGTGACCGGGCCCGGCAAGTTCGACCCATCGAAGCCTGTCATTCCGTACTCTAACGAGGGCGCTACGTTCTACATCAACCAGATGTACGTGAATTTCCAGGCTCCCGTCCGCCCAAGGGGCCTCCCACTGGTGTTCTGGCACGGCGGGGGCCTGACAGGCCATATCTGGGAGTCCACTCCAGATGGCCGCCCAGGGTTCCAGACACTCTTCGTTCAGGACAGGCACACAGTGTACACTATTGATCAGCCAGGGAGGGGCAGGGGGAACATCCCTACCTTCAATGGCCCATTCGGGCAGCTGGAGGAGGAGTCCATCGTGAACACCGTCACGGGCAATTCCAGCAAGGAGGGGGCTTGGGTCAGGGACCGGCTCGGCCCGGCCCCAGGGCAGTTCTTCGAGAACTCTCAGTTCCCCCGGGGCTACGAGGATAATTACTTCAAGGAGATGGGCTTCTCACCATCCATCTCGTCTGACGAGATTGTCGATGCCGTGGTCAAGCTCGTTACCCACATCGGCCCTTGCGTTCTGGTGACGCATAGCGCTTCGGGCGTCCTCGGGATGAGGGTTGCTACACATGCGAAGAACGTTCGCGGCATCGTGGCTTACGAGCCGGCCACTTCCATTTTCCCCAAGGGCAAGGTGCCAGAGATCCCACCACTGGCCGACAAGAAGTCACAGATCTTCCCACCTTTCGAGATTCAGGAGTCCTACTTCAAGAAGCTCGCTAAGATCCCCATTCAGTTCGTGTTCGGCGACAACATTCCTAAGAATCCGAAGAGCGCGTACTGGTTCCTGGATTGGTGGCGCGTCACGCGCTACGCGCACTCTCTCTCACTGGAGGCTATCAACAAGCTCGGGGGCCAGGCCTCGCTCCTGGACCTCCCTACCGCTGGCCTGAGGGGGAACACCCATTTCCCGTTCACGGATCGGAACAATGTCCAGGTTGCGTCCCTCCTGAGCGATTTCCTCGGCAAGCACGGGCTGGATCAGAATGAGTCTAAGCTCGCTGCGGCGCTGGAGTGA
modifications: the ALT02-02 nucleotide sequence encoding the amino acid sequence corresponding to the herbicide tolerant protein ALT02 and based on the maize codon usage bias

These molecules were tested on maize plants (assay: Herbicide tolerance of transgenic maize T1 plants (spraying, damage degree)). Conditions: sprayed with tribenuron-methyl 144 g ai/ha, eight-fold field concentration.
Format: in vivo
Procedure: The degree of damage caused by the herbicide was measured for each plant according to the plant growth status 3 days after spraying (3 DAT), 7 days after spraying (7 DAT), 14 days after spraying (14 DAT) and 21 days after spraying (21 DAT): a growth status equivalent to that of the untreated plants is defined as having a damage degree of 0%; the case where leaves are locally chlorotic and yellow but the normal plant growth is substantially not affected is defined as having a damage degree of 50%; and the case where the whole plant is purple and dying is defined as having a damage degree of 100%. The maize plants into which the ALT02M1-02 nucleotide sequence was introduced were of three strains in total (S15, S16 and S17), the maize plants into which the ALT02M2-02 nucleotide sequence was introduced were of three strains in total (S18, S19 and S20), the maize plants into which the ALT02M3-02 nucleotide sequence was introduced were of three strains in total (S21, S22 and S23), the maize plants into which the ALT02-02 nucleotide sequence was introduced were of three strains in total (S24, S25 and S26), the control maize plants were of two strains in total (S27 and S28), and the wild-type maize plants were of one strain in total (CK2); and 10-15 plants were selected from each strain and tested.

| Molecule | herbicide tolerance compared with maize plants into which ALT02-02 was introduced | herbicide tolerance imparted to transgenic maize plants |
| --- | --- | --- |
| B1 | significantly increased tolerance to benzenesulfonic acid | impart transgenic maize plants with the tolerance to benzenesulfonic acid |
| B2 | significantly increased tolerance to benzenesulfonic acid | impart transgenic maize plants with the tolerance to benzenesulfonic acid |
| B3 | significantly increased tolerance to benzenesulfonic acid | impart transgenic maize plants with the tolerance to benzenesulfonic acid |
| B4 |  | impart transgenic maize plants with the tolerance to benzenesulfonic acid |
